# Source: patent US10487318
# T1: 33mer peptide (LQLQPFPQPQLPYPQPQLPYPQPQLPYPQPQPF)
# T1 chain: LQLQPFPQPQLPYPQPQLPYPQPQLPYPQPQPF
# T2: α9-gliadin peptide (QLQPFPQPQLPY)
# T2 chain: QLQPFPQPQLPY
# T3: Glia_56-79 peptide (LQLQPFPQPQLPYPQPQLPY)
# T3 chain: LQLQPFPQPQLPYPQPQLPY
# T4: α2-gliadin peptide (PQPQLPYSQPQPFR)
# T4 chain: PQPQLPYSQPQPFR
# T5: fluorescent analogue of gliadin, hexapeptide QPQLPY conjugated to a fluorophore and a quencher
# T5 chain: QPQLPY
# T6: γ-gliadin peptide (IQPQQPAQL)
# T6 chain: IQPQQPAQL
# Experiments:
# [1] = target: T1, 33mer peptide …
# [2] = target: T2, α9-gliadin peptide (QLQPFPQPQLPY)
# [3] = target: T3, Glia_56-79 peptide …
# [4] = target: T4, α2-gliadin peptide (PQPQLPYSQPQPFR)
# [5] = target: T5, fluorescent analogue of gliadin, …
# [6] = target: T6, γ-gliadin peptide (IQPQQPAQL)
protein,measurement,setting,value
Homologue 15 (NCBI YP_002754884) (protein) MSPIASRRSALPLSERPAPENARALAAVEPDRTMTVSVLVRRKKPLVLADLEGKKLTHREFERRYGASEKDFATIAKFAAGHGLAVDHHASSLARRTVVLRGTARQMQQAFGVTLHDYEDSETQQRYHSFTGAITVPAAHARIIESVLGLDARPIAKPHFRVRKRSAAATGAVSFNPPQVASLYSFPTGVDGSGETIGILELGGGYETSDIQQYFSGLGIQPPTVVAVSVDGAVNAPGNPNGADGEVALDIQVAGSIAPGAKLAVYFAPNTEQGFVDAITTAVHDTANKPSVLSISWGGPESSWPQAAAQSLNNACESAAALGVTITVASGDNGSTDGVQDGQNHVDFPASSPYVLACGGTYLAAVNNGVPQESVWDDLASGGGATGGGVSALFPLPAWQTGANVPGGSMRGVPDVAGDASPESGYNVLVDGQPQVVGGTSAVAPLWAALIALVNQQKGEAAGFVNAALYQNPSAFHDITQGSNGAYAAAPGWDPCTGLGSPMGTAIAKILA,Degradation pattern of 33mer (60 min),[1],WT-like
Homologue 6 (NCBI YP_003109679) (protein) MAPEERRTLPGSAMPRPAGAQVLGQIPDDERVEVTVVLQPRAPLPEPGPTPMSRAELADLRSPPEGALEAIARYVAGQGLEVIAADAPRRRIVLAGSAARIAALFGISFVRLQLEGRRYRTYEGEISLPAELAPLVVAVLGLDTRPFARSHRRPAVAPNAPTTAPTVARAYDFPTAYDGRGTTIGFIELGGGFQESDLVRYCEGLGLSTPQVSVVGVDGARNAPTGDPNGPDAEVMLDLEVATGVANGADLVLYMAANTDAAFYSAIATALRDATHAPVAISISWGAPEESYPATTIAAFESVLEEAVHVGVTVLVAAGDQGSTDGVDDGRAHVDYPAASPYVLACGGTRLDLDGTTIVAETVWNDLPNGGATGGGISALFPVPSWQAGIAMPPSANPGAGPGRGVPDVAGNADPDTGYRIVVDGVATVVGGTSAVAPLWAGLVARCHQAGARGGFWNPLLYAARGSSAFHEITVGSNGAYDAGPIWNACCGLGSPNGTAILQTLRA,grade and % of peptide after an 80-min incubation,[2],-; 114%
same,grade and % of peptide after an 80-min incubation,[3],-; 85%
same,grade and % of peptide after an 80-min incubation,[4],-; 87%
same,"rate of degradation of the fluorescent hexapeptide, pH 4",[5],no activity was seen for this homologue in the fluorescent experiment conducted at pH 4
same,grade and % of peptide after an 80-min incubation,[6],-; 102%
Homologue 17 (NCBI YP_004216463) (protein) MAATPRFASQPRVTLPGSQKHPLTTDTEVPPPAPVKAAATKLSATPFTVTVIVKRKNPLNLKQVLKPAGRLTHAAFAKAHGPSPDGVKLVKAFAKEFGLTVAPAPGQGRRALYLTGTAAAMQTAFGVTFATKIMEGTKYRVREGDICLPKELIGHVDAVLGLDNRPQAKPHFRHHKPAATSVSYTPVQVGQLYGFPSGAKATGQTIGLIELGGGFRAADITAYFKTLGQTAPKVTAVLVDKAKNTPTTSSSADGEVMLDIEVAAAVAPGANIAVYFAPNTDQGFIDAISQAVHDTVNKPSVISISWGGPESTWTAQSLAALDAACQSAAALGITITVAAGDDGSTDGVKGTVNHVDFPASSPHVLGCGGTKLLGSGTTITSEVVWNELTANEGATGGGVSNVFPLPTWQAKSNVPKPTVAAGGRGVPDVSGNADPSTGYTVRVDGSTFPIGGTSAVAPLWAGLIALCNAQNKTTAGFINPALYAAAAAKSFRDITSGNNGGFKAGPGWDACTGLGSPIGTAIAKTLAPATKSTSKTAVKNAPEIRFRPHKKAPTKTAAKTPALRRLK,Degradation pattern of 33mer (60 min),[1],WT-like - minor
Homologue 16 (NCBI YP_003387700) (protein) MSAFDQLVPLPGSEKTVPDAAPSQTLDPNEVLTVTIRIRRKRTLASLVSTTAPVTEVVSRSEYASRFGADPAIVKQVEAFASAYDLSLVEQSLARRSVLLRGTVAQMEQAFGVSLANYQLADGTVFRGRTGVVNVPSELVEHIEGVFGLDNRPQARAHFQVYKPEKGTKVAPRAGGISYTPPQLARLYNFPTGVTGKGQCIAIIELGGGFRTADIKTYFGGLGLKPPTVVAVSVDGGHNAPSTADSADGEVMLDIDVAGGVAPGAKIVVYFAPNTDQGFLDAITTAMHDTKNKPSVISISWGAAESNWTPQALTSFNQAFQAAAALGITVCAAAGDTGSDDSVGDGKAHVDFPASSPFVLACGGTKLTATDNVIASEVVWHESKTSATGGGVSDVFDLPDYQQKSHVPPSVNDKTRIGRGVPDVAAVADPVTGYAVRVDGSNLVFGGTSAVAPLMAGLIALINQQRGKAVGFIHPLIYANPSAFRDITQGNNTTTTGNKGYAATTGWDACTGLGVADGKKLASVLTATPVA,Degradation pattern of 33mer (60 min),[1],WT-like
Homologue 5 (NCBI ZP_09078202) (protein) AGRTSYTPLEVAALYNFPSIHCKDQCIGILELGGGYRPADLQTYFNGLGIPQPNITDVSVGGAANRPTGDPNGPDGEVVLDIEVAAAVTPGAKIAVYFADNSDDGFLNAITTAIHDTRNKPSVISISWGKAEIGWTPQAINAMNQAFRDAAALGVTICCASGDDGSTDRVQDGRYHVDFPASSPYVLACGGTRLESSGSTITQEVVWNEGALGGGATGGGVSDVFDRPNWQANANVPTSANPERRIGRGVPDWAGNADPATGYQILVDGTRAVIGGTSAVAPLFAGLIAIINQKLGHSVGFINPILYNLSAQHNVFHDITSGNNDMSGQNGPYEAQPGWDACTGLGSPDGTKLMNAISEAHRLVSVG,grade and % of peptide after an 80-min incubation,[2],++/-; 34%;
same,grade and % of peptide after an 80-min incubation,[3],++; 0.4%
same,grade and % of peptide after an 80-min incubation,[4],++ (undetect)
same,grade and % of peptide after an 80-min incubation,[6],++/-; 40%
Homologue 14 (NCBI YP_001861188) (protein) HMTKHPLPGSERVLAPGSKVVAQCDPSETIEVVVVLRRKNEQQFAQMMKTIEAGAAGARPLTREELEQRFGALPEDIAKLKAFAAQHGLSVVREDASARTVVLSGRIEQFQQAFDVQLQHYEHQSMGRFRGRTGAISVPDELHGVVTAVLGLDDRPQARPHFRIRPPFQPARAQSASSFTPLQLASLYRFPQGDGSGQCIGIVELGGGYRTADLDSYFSSLGVGSPKVVAVGVDQSGNQPTGDPNGPDGEVTLDIEIAGALAPAATIAVYFTTNSDAGFIDAVSQAVHDRTNQPSVISISWGAPESMWTAQSMKALNDVLQSAAAIGVTVCAASGDSGSSDGVGDGRDHVDFPASSPYVLACGGTSLQGSGRTVAHEVVWNDGSNGGATGGGVSGAFPVPAWQEGLSTSAAQGGQRALTGRGVPDVAGDASPLTGYDVIVDGNNTVIGGTSAVAPLWAALIARINGAKGAPVGFVNPKLYKASACNDITQGNNGSYAATTGWDACTGLGSPDGVKVAAAL,Degradation pattern of 33mer (60 min),[1],WT-like - minor
Homologue 19 (NCBI YP_005056054) (protein) MPTSSRFASQSRVPLPGSERKPFVPAGAPKAAKTPKVSTAVKTVPATGRIRVSLIVPPKQPLDTKRLGKLDARLSRAQFAARHGADPASVRLVKAFAKEFGLTVEPITQPGRCTVQLSGTCAAMRKAFAISLVEHTTEQGKFRLREGEISLPAELEGHVLAVLGLDNRPQAKPHFRIAKPRATNVSYTPVQVAQMYGFPAGATATGQTIGIIELGGGYRAADLTAYFKTLGLPAPTVTAVPIDGGKNTPGNANGADGEVMLDIEVCAAVAQGAKIAVYFTTNTDQGFIDAITTAVHDSTNKPSVISISWGGPESSWTEQSMTALDAACQAAAAVGVTITVAAGDNGSSDGASGDNVDFPASSPHVLACGGTKLVGSGSTITSEVVWDETSNDEGATGGGVSTVFALPTWQKNANVPSPTTSAGGRGVPDVSGDADPSTGYTIRVDSETTVIGGTSAVAPLWAGLIALANAQNKVAAGFVNPALYAAGAKKAFRDITQGNNGSFSAGPGWDACTGLGSPVGNLVIQAVAPKSTTTKKAKKGKTK,Degradation pattern of 33mer (60 min),[1],WT-like - minor
